Here are results for one molecule from article PMC2515335 (2008).

In this experiment the target is T1, Importin-β3 (Homo sapiens, UniProt O00410).
T1 chain: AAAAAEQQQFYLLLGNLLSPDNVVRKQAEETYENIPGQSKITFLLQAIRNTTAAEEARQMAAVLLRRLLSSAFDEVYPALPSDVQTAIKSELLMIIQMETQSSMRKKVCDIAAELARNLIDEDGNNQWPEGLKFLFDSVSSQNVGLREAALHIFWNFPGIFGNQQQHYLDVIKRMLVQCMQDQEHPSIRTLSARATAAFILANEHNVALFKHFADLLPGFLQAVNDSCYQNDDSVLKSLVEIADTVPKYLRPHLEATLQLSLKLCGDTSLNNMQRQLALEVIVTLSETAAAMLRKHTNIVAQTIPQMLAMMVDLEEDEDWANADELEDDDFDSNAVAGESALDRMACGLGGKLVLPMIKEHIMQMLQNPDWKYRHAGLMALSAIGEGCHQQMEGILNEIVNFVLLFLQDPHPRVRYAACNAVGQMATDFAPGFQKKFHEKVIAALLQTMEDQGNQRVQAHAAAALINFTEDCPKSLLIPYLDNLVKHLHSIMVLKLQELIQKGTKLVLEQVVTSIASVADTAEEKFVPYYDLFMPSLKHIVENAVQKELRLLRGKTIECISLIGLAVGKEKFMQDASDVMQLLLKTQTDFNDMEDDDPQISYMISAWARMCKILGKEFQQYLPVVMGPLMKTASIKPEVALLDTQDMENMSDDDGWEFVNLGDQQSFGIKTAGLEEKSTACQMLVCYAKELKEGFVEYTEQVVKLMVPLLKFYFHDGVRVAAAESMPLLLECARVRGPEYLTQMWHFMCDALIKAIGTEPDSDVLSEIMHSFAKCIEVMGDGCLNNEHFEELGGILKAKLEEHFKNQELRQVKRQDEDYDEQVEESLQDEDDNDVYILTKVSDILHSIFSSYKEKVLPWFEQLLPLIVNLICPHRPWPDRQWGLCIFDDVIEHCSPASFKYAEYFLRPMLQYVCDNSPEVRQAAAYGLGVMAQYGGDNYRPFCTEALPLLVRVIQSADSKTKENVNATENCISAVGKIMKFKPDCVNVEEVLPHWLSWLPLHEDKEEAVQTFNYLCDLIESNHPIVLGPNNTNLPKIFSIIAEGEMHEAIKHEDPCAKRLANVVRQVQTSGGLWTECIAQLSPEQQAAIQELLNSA
In words: native PAGE gel-shift mobility assay/fluorimetry.

B1: Vpr 1-96 (protein)
chain: MEQAPEDQGPQREPYNEWTLELLEELKSEAVRHFPRIWLHNLGQHIYETYGDTWAGVEAIIRILQQLLFIHFRIGCRHSRIGVTRQRRARNGASRS
As a reminder, the Kd is the free concentration of one partner at which half of the binding sites on the other are occupied at equilibrium, for simple one-to-one binding. Consider B1, for which the dissociation constant Kd was 660 nM.
